{"source": "the RNAGym collection of RNA variant scans (doi:10.1073/pnas.2313332121)", "parents": {"B1": {"name": "TPR 5TU (parent)", "chain": "GGAUCUUCUCGAUCUAACAAAAAAGACAAAUCUGCCACAAAGCUUGAGAGCAUCUUCGGAUGCAGAGGCGGCAGCCUUCGGUGGCGCGAUAGCGCCAACGUUCUCAACUAUGACACGCAAAACGCGUGCUCCGUUGAAUGGAGUUUAUCAUG"}}, "note": "This sample holds only a part of the variants without activity."}
{"variants_of": "B1", "assay": "polymerase ribozyme fitness, log enrichment relative to wild type (log ratio); higher = more active; in vitro selection for triplet polymerase activity", "method_in_brief": "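Fitness compares each genotype's enrichment to that of the wild type on a logarithmic scale, averaging replicates with inverse-variance weights. The logarithm is base 2. Enrichment came from Illumina sequencing of input and output libraries after one triplicate round of in vitro selection, which included frozen incubation at −7 °C, of PCR-built, transcribed mutant libraries of each subunit of a heterodimeric triplet polymerase ribozyme. Only genotypes with ≥10 input reads and ≥1 read per output were kept.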"}
{"variant": "C10G C14U A28U U53A A122C", "polymerase ribozyme fitness (log ratio)": "≤ -4.2"}
{"variant": "C10U A28U G94A U127G", "polymerase ribozyme fitness (log ratio)": -4.04}
{"variant": "G11A C14U U61A G80C C85G C96U A98G C108A", "polymerase ribozyme fitness (log ratio)": "≤ -4.2"}
{"variant": "C10A A17C A20C G34U G58C U90G", "polymerase ribozyme fitness (log ratio)": "≤ -4.2"}
{"variant": "G11A U13C C36U A49U A60U", "polymerase ribozyme fitness (log ratio)": -4.19}
{"variant": "G11A A110G", "polymerase ribozyme fitness (log ratio)": -3.76}
{"variant": "A12C A16G A39U A91C G141C U148G", "polymerase ribozyme fitness (log ratio)": "≤ -4.2"}
{"variant": "A12C G84A", "polymerase ribozyme fitness (log ratio)": -0.118}
{"variant": "G11U A16U A52C G58C G65A C79A G83U C93U C118A", "polymerase ribozyme fitness (log ratio)": "≤ -4.2"}
{"variant": "G11U G42U G68A G86U C95G A137C", "polymerase ribozyme fitness (log ratio)": "≤ -4.2"}
{"variant": "C10U G94A", "polymerase ribozyme fitness (log ratio)": -2.69}
{"variant": "U9G U15C A19U C35G A113U C132U", "polymerase ribozyme fitness (log ratio)": "≤ -4.2"}
{"variant": "C10A C32G C38U U56G A60G C95A C131U G140U", "polymerase ribozyme fitness (log ratio)": -4.19}
{"variant": "C10A C27G G46A C75A C96A", "polymerase ribozyme fitness (log ratio)": "≤ -4.2"}
{"variant": "G11U G84A", "polymerase ribozyme fitness (log ratio)": -0.536}
{"variant": "G11A A73G G92A A121G", "polymerase ribozyme fitness (log ratio)": "≤ -4.2"}
{"variant": "C10G A20C U33G C93A G94U C96G C114U U145A", "polymerase ribozyme fitness (log ratio)": "≤ -4.2"}
{"variant": "A12G A73U C96A U109A C116U", "polymerase ribozyme fitness (log ratio)": -2.66}
{"variant": "A12G A16C A119U A121G U135C U146A A150G", "polymerase ribozyme fitness (log ratio)": -4.12}
{"variant": "C10U U77G C87A A91C C108U G133A", "polymerase ribozyme fitness (log ratio)": "≤ -4.2"}
{"variant": "G11C U13A A64U G74C C85U C96G U102C", "polymerase ribozyme fitness (log ratio)": "≤ -4.2"}
{"variant": "G11U A16C A24G G58C C87A C99U", "polymerase ribozyme fitness (log ratio)": "≤ -4.2"}
{"variant": "C10U C87U", "polymerase ribozyme fitness (log ratio)": -2.87}
{"variant": "U9G U13G A22C A28U A41C C76U G92A U148A", "polymerase ribozyme fitness (log ratio)": "≤ -4.2"}
{"variant": "G11C C35G A52U C63A G94A C131U", "polymerase ribozyme fitness (log ratio)": "≤ -4.2"}
{"variant": "G11U C69U U134C", "polymerase ribozyme fitness (log ratio)": -1.33}
{"variant": "G11A C32A C93U", "polymerase ribozyme fitness (log ratio)": "≤ -4.2"}
{"variant": "A12C U31A A47G C79A", "polymerase ribozyme fitness (log ratio)": "≤ -4.2"}
{"variant": "C10U A60G A64U C85U C129A", "polymerase ribozyme fitness (log ratio)": "≤ -4.2"}
{"variant": "G11C A17G C32A C72U A113U G117U A122U U148G", "polymerase ribozyme fitness (log ratio)": "≤ -4.2"}
{"variant": "C10A A17C A41G C54G U55A C85U C95U U104G G126U A138G G152U", "polymerase ribozyme fitness (log ratio)": "≤ -4.2"}
{"variant": "C10G U61A C93A U139A", "polymerase ribozyme fitness (log ratio)": "≤ -4.2"}
{"variant": "A12C C14A A30U A39C G58C G83C G124U", "polymerase ribozyme fitness (log ratio)": "≤ -4.2"}
{"variant": "C10U G25U A40U C79U G84A A142C", "polymerase ribozyme fitness (log ratio)": "≤ -4.2"}
{"variant": "C10G U56A A89U C99U G112C U145G", "polymerase ribozyme fitness (log ratio)": "≤ -4.2"}
{"variant": "C10G U144C", "polymerase ribozyme fitness (log ratio)": -3.87}
{"variant": "C10G A52U C72U G86U C93U C116G G124A U144C", "polymerase ribozyme fitness (log ratio)": "≤ -4.2"}
{"variant": "A12C G46U A113U C118U", "polymerase ribozyme fitness (log ratio)": -3.95}
{"variant": "C10U G42C A49C A66G C79G A91G C125A A147G A150C", "polymerase ribozyme fitness (log ratio)": "≤ -4.2"}
{"variant": "U9G U31G G83C C99U U144G", "polymerase ribozyme fitness (log ratio)": "≤ -4.2"}
{"variant": "G11C C14A A16G C87U", "polymerase ribozyme fitness (log ratio)": "≤ -4.2"}
{"variant": "C10U C76U A91U C95A A113U A120U", "polymerase ribozyme fitness (log ratio)": "≤ -4.2"}
{"variant": "A12C C38U G50C U53A U55G G71U G92U U148C", "polymerase ribozyme fitness (log ratio)": "≤ -4.2"}
{"variant": "C10G C14U C36A C79U G92U", "polymerase ribozyme fitness (log ratio)": "≤ -4.2"}
{"variant": "C10G A21U A91G", "polymerase ribozyme fitness (log ratio)": "≤ -4.2"}
{"variant": "G11A U55G G74C U77C A98U A115C", "polymerase ribozyme fitness (log ratio)": "≤ -4.2"}
{"variant": "C10G A41G A115G", "polymerase ribozyme fitness (log ratio)": "≤ -4.2"}
{"variant": "A12C A37G G46C C96G A110G C116U U135G", "polymerase ribozyme fitness (log ratio)": "≤ -4.2"}
{"variant": "A12C U33A G42U A60G C93G", "polymerase ribozyme fitness (log ratio)": "≤ -4.2"}
{"variant": "C10G G68C G83U A107C", "polymerase ribozyme fitness (log ratio)": "≤ -4.2"}
{"variant": "C10U U135A G141A C149G", "polymerase ribozyme fitness (log ratio)": "≤ -4.2"}
{"variant": "G11C A23U G48C C79A U82G G94U A142U", "polymerase ribozyme fitness (log ratio)": "≤ -4.2"}
{"variant": "C10U C38U A73G A89G A97G C116G A122U C129A", "polymerase ribozyme fitness (log ratio)": "≤ -4.2"}
{"variant": "C10U G42C U53A A66G A91G A110C", "polymerase ribozyme fitness (log ratio)": "≤ -4.2"}
{"variant": "C10A C14G A19U A30C C93U", "polymerase ribozyme fitness (log ratio)": "≤ -4.2"}
{"variant": "C10A C14U A30U C51A C57G G84A", "polymerase ribozyme fitness (log ratio)": "≤ -4.2"}
{"variant": "G11U A47C G50U C57G A64U C76G", "polymerase ribozyme fitness (log ratio)": "≤ -4.2"}
{"variant": "G11C C38U C76U U78G A97G G124U", "polymerase ribozyme fitness (log ratio)": "≤ -4.2"}
{"variant": "G11C A49C U53G G141A", "polymerase ribozyme fitness (log ratio)": "≤ -4.2"}
{"variant": "A12C A16U U145G", "polymerase ribozyme fitness (log ratio)": -2.26}
{"variant": "C10U A23U U33G C96G A115C", "polymerase ribozyme fitness (log ratio)": "≤ -4.2"}
{"variant": "G11C A30U C95A C108G U148A", "polymerase ribozyme fitness (log ratio)": "≤ -4.2"}
{"variant": "A12G A29C C35G C95A C118A G133C", "polymerase ribozyme fitness (log ratio)": "≤ -4.2"}
{"variant": "A12G A29G U55A C85U C96U C105U", "polymerase ribozyme fitness (log ratio)": "≤ -4.2"}
{"variant": "G11U C18U G84U", "polymerase ribozyme fitness (log ratio)": -3.2}
{"variant": "G11C C63U G83A A115U U135A U146C G152U", "polymerase ribozyme fitness (log ratio)": "≤ -4.2"}
{"variant": "G11U A28U C43U C87A C99G G126A", "polymerase ribozyme fitness (log ratio)": -4.16}
{"variant": "C10G C57G G92C A113C G133A", "polymerase ribozyme fitness (log ratio)": "≤ -4.2"}
{"variant": "C10U A17G A23C A24C A26G U31G A39U U44A C54G C57G G86U A97U A142C", "polymerase ribozyme fitness (log ratio)": "≤ -4.2"}
{"variant": "A12G A16U G50A G83C C85A U90C", "polymerase ribozyme fitness (log ratio)": "≤ -4.2"}
{"variant": "G11C U15G A40C C87A U148G", "polymerase ribozyme fitness (log ratio)": "≤ -4.2"}
{"variant": "C10U G84U", "polymerase ribozyme fitness (log ratio)": -4.13}
{"variant": "G11U A19C G68A G74A C87A C149G", "polymerase ribozyme fitness (log ratio)": "≤ -4.2"}
{"variant": "C10G U146G", "polymerase ribozyme fitness (log ratio)": -4.19}
{"variant": "C10A A21G A29G C51U A52G U78C C95A A122U U146G", "polymerase ribozyme fitness (log ratio)": "≤ -4.2"}
{"variant": "C10G A20C A40U A64G G70U C87U", "polymerase ribozyme fitness (log ratio)": "≤ -4.2"}
{"variant": "A12C G25U U55A U56C G83C", "polymerase ribozyme fitness (log ratio)": "≤ -4.2"}
{"variant": "G11A C85U G92C G143A", "polymerase ribozyme fitness (log ratio)": -4.01}
{"variant": "A12C A113G", "polymerase ribozyme fitness (log ratio)": -2.73}
{"variant": "C10G G42U C63U C95A C123G", "polymerase ribozyme fitness (log ratio)": "≤ -4.2"}
{"variant": "A12C C35U A49C A64U C95U C123U", "polymerase ribozyme fitness (log ratio)": "≤ -4.2"}
{"variant": "C10A C93G", "polymerase ribozyme fitness (log ratio)": "≤ -4.2"}
{"variant": "C10U A39G C54G C63A G70C C93U G141A", "polymerase ribozyme fitness (log ratio)": "≤ -4.2"}
{"variant": "G11A A12C A23C G46A A73U G80C A97U U109A U145A", "polymerase ribozyme fitness (log ratio)": "≤ -4.2"}
